Reference: the supplement of paper PMC10567573
± gives the standard deviation.

Assay: protein stability index of a GFP-peptide fusion (GPS, HEK-293T) (PSI 1-6); higher = more stable
[1] = treatment: DMSO, c terminus: a fixed tail appended
[2] = treatment: MLN4924 1 uM, 8 h, c terminus: a fixed tail appended
[3] = treatment: DMSO, c terminus: native
[4] = treatment: MLN4924 1 uM, 8 h, c terminus: native
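Also: 24-mer peptide tiles fused after GFP, lentivirally expressed, FACS-sorted into six equal bins by GFP/DsRed ratio, decoded by Illumina sequencing, PSI is the read-weighted mean bin number.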

Row | Sequence | protein stability index [1] | protein stability index [2] | protein stability index [3] | protein stability index [4]
1 | LASISTYGFRGEALASISHVAHVT [MLH1] | 2.19 ± 0.48 | 2.19 ± 0.23 |  | 
2 | VKGRVRCLTAGPEVAAQLPAVRQL [ZSWIM9] | 3.19 ± 0.18 | 3.12 ± 0.43 |  | 
3 | TWYLKTIDICHDHFGWYLGWGDCV [DHCR7] | 3.01 ± 0.34 | 3.1 ± 0.53 |  | 
4 | PCVAESPTVHVEVHQRGSSTAKKE [TRIP13] | 5.42 ± 0.39 | 5.35 ± 0.087 |  | 
5 | ERVWALAQEKAADVQARLNRSDHG [FCHSD1] | 4.23 ± 0.13 | 4.23 ± 0.24 |  | 
6 | KSLEGGGTAFDAETDSEMNSQESR [SMG5] | 5.5 ± 0.15 | 5.58 ± 0.15 |  | 
7 | GNTESELKKLAEENPDLQEAYIAK [GDAP1] | 5.51 ± 0.26 | 5.5 ± 0.26 |  | 
8 | PEHGDRVAELFCRRCRRCVCALCP [TRIM14] | 3.29 ± 0.55 | 3.5 ± 0.1 |  | 
9 | RSHSREPRAERKCPRIAPADSGRY [ELOA2] | 4.093 ± 0.032 | 4.25 ± 0.47 |  | 
10 | VKLNVGGSLHYTTLRTLTGQDTML [KCTD13] | 2.45 ± 0.47 | 2.27 ± 0.28 |  | 
11 | RREVAKTVFCLVVIFALCWFPLHL [EDNRA] | 2.93 ± 0.19 | 2.53 ± 0.27 |  | 
12 | CTDFCLRNLDGTLGYLLDKETLRL [ZER1] | 2 ± 0.23 | 2.13 ± 0.17 |  | 
13 | RVLDGKEAKAVGLISHVLEQNQEG [AUH] | 4.53 ± 0.38 | 4.95 ± 0.088 |  | 
14 | EDAEAVEQLREALHEALLEYEAGR [ESRRA] | 4.03 ± 0.35 | 4.26 ± 0.18 |  | 
15 | MVFIAGILLNGVSGWIFFYVPSSE [P2RY14] | 2.94 ± 0.34 | 2.84 ± 0.51 |  | 
16 | RRKPDPPKDENERSTCNVVQDEFL [DLC1] | 5.27 ± 0.1 | 5.33 ± 0.13 |  | 
17 | PYARIQQSRRQCHAEEDQSQVPEA [SMIM2] | 5.3 ± 0.19 | 5.19 ± 0.14 |  | 
18 | SEAKSHSSADDASAWSNIQEAPLQ [FAN1] | 5.29 ± 0.31 | 5.04 ± 0.46 |  | 
19 | FAWSQGHRTVKLVPWSQCLQNFLL [WSB1] | 1.99 ± 0.83 | 2.3 ± 0.031 |  | 
20 | ELNHGRQGENQEHLVIAEMMELGS [FATE1] | 4.3 ± 0.29 | 4.27 ± 0.36 |  | 
21 | YQQLKLEGPGEQETKLDLISKGEE [SLC29A1] | 5.25 ± 0.28 | 5.28 ± 0.13 |  | 
22 | NERKVAQLAEENERLKQEIERLTR [DDIT3] | 5.1 ± 0.37 | 5.18 ± 0.3 |  | 
23 | VVYSKAASVPKVETVKSDNKDDDI [EIF5] | 5.23 ± 0.13 | 5.19 ± 0.11 |  | 

Row | Sequence | protein stability index [1] | protein stability index [2] | protein stability index [3] | protein stability index [4]
24 | CARMLYNYGADTNTRNYEGQTPLA [ASB7] | 2.63 ± 0.28 | 2.62 ± 0.36 |  | 
25 | WDPACLPLPPPPPAFKSMEVANFY [CEBPB] | 3.02 ± 0.28 | 3.28 ± 0.47 |  | 
26 | LDDEDDDEEDCPNPEEYNLDEPNA [SRPK2] | 5.57 ± 0.22 | 5.58 ± 0.24 |  | 
27 | VSCGFGGGAGSGFGGGYGGGLGGG [KRT13] | 2.32 ± 0.35 | 2.2 ± 0.5 |  | 
28 | PNEAMVVSGFCRSPPVMVAGGRVF [FLOT1] | 2.2 ± 0.2 | 2.42 ± 0.26 |  | 
29 | TLCKADLEAQVESLKEELMCLKKN [KRT36] | 3.51 ± 0.4 | 3.83 ± 0.15 |  | 
30 | PDFNPEKHGSLNRYHNSHPLRERA [YJU2B] | 4.36 ± 0.21 | 4.37 ± 0.29 |  | 
31 | NFKPRGYSECIVTVGGEERVSRKP [GAN] | 4.14 ± 0.28 | 4.32 ± 0.39 |  | 
32 | LSRLQRVKFCLLGALLAPIRVLLA [LPCAT4] | 3.67 ± 0.42 | 3.58 ± 0.14 |  | 
33 | IVIGILSAYISNYAFANVFHGWKY [SLC2A12] | 3.01 ± 0.51 | 3.25 ± 0.68 |  | 
34 | EEEDQHMKLSLGGSEMGLSSHLQS [KLHL13] | 4.95 ± 0.12 | 4.91 ± 0.14 |  | 
35 | MLKEEHQIILENQKNFGLYVQEKR [RAD54B] | 2.99 ± 0.24 | 3.62 ± 0.29 |  | 
36 | QHVPEELDLSSSSQMSPLSLYGEN [ATF6] | 4.97 ± 0.19 | 5 ± 0.18 |  | 
37 | REKPFKCQECGKTFRVSSDLIKHQ [ZNF75A] | 4.73 ± 0.19 | 4.72 ± 0.32 |  | 
38 | KKSNSPGTASSGSSRLPQPSGAGK [ZC2HC1A] | 5.25 ± 0.19 | 5.23 ± 0.14 |  | 
39 | YAKKESDLNGAQIKLREYEAALNS [LMNB1] | 4.07 ± 0.2 | 4.07 ± 0.3 |  | 
40 | LEEKDRVLKKQDAFYKEQLARLEE [CHCHD3] | 5.04 ± 0.25 | 5.17 ± 0.24 |  | 
41 | SESSPSDFSVSLKASGKNKHFKVQ [NCK2] | 4.39 ± 0.18 | 4.33 ± 0.17 |  | 
42 | LSLTSSASRLLTTALTSFCAKYTY [FANCE] | 2.72 ± 0.48 | 2.81 ± 0.67 |  | 
43 | VFVLIDEVESLTAARNACRAGTEP [TRIP13] | 2.35 ± 0.2 | 2.63 ± 0.36 |  | 
44 | MCLSPDRKMEVEELSPLALGRFSL [CDC25B] | 2.57 ± 0.19 | 2.71 ± 0.24 |  | 
45 | CSKVSELTERLKVLEAKMTMLTVI [EMID1] | 2.63 ± 0.73 | 2.46 ± 0.38 |  | 
46 | NCPWPMSCPGSSYRTVVRPTYKVM [EMID1] | 2.62 ± 0.26 | 2.47 ± 0.4 |  | 

Row | Sequence | protein stability index [1] | protein stability index [2] | protein stability index [3] | protein stability index [4]
47 | VHNAMDNYECNLYTFLYLVCISTK [FEM1B] | 2.82 ± 0.59 | 2.2 ± 0.53 |  | 
48 | TPQPTALTFAKSSWARQESLQERK [AUP1] | 4.43 ± 0.14 | 4.48 ± 0.19 |  | 
49 | EDSINNSLVQLQASHQQQVLPPRQ [MYBL2] | 4.93 ± 0.14 | 4.72 ± 0.19 |  | 
50 | RPGATAVPTPLTNVQILLPVGEPV [FCHO1] | 3.4 ± 0.26 | 3.33 ± 0.2 |  | 
51 | SQLAGQVNVEMDAAPGVDLTRVLA [KRT15] | 4 ± 0.18 | 3.94 ± 0.057 |  | 
52 | STDTESNNEEQRSGLIYLTNHIAP [IKZF1] | 4.63 ± 0.2 | 4.81 ± 0.21 |  | 
53 | GEEAVTLVEDMQRELGRLRQQVTN [ZNF263] | 4.1 ± 0.14 | 4.02 ± 0.29 |  | 
54 | SLTDDKYDVAMNRAKDLVELDPEV [GOLPH3L] | 5.37 ± 0.16 | 5.4 ± 0.26 |  | 
55 | GKGDDSETDKNNCSNAKAVETDV [KCNA4] |  |  | 5.13 ± 0.28 | 5.52 ± 0.38
56 | NKRERSKLKNLRRKQRRRERWLQK [RNF180] | 4.32 ± 0.24 | 4.49 ± 0.38 |  | 
57 | SGISFPSVVDHPMPEERASKYENY [HESX1] | 4.25 ± 0.32 | 4.22 ± 0.3 |  | 
58 | ATQMMVDIDGDVLVFLELAQFHCA [RHOBTB2] | 3.08 ± 0.33 | 2.89 ± 0.75 |  | 
59 | IEVQPNFEVPYYNRGLILYRLGYF [TTC32] | 3.17 ± 0.4 | 2.73 ± 0.38 |  | 
60 | KVFEELLLDADWSINAGSWMWLSC [CRY1] | 2.28 ± 0.49 | 2.58 ± 0.27 |  | 
61 | ASLGREESRAPSPLLHKDSASLEV [CBY2] | 4.79 ± 0.31 | 4.85 ± 0.19 |  | 
62 | ATGDTALTYACENGHTDVADVLLQ [ANKRD17] | 4.41 ± 0.21 | 4.56 ± 0.08 |  | 
63 | HMNVEALPEWISCLIQKAQWTVGK [RNF180] | 2.32 ± 0.51 | 2.19 ± 0.34 |  | 
64 | LDLRVKGILSSQAEGLANGPDVLE [EHMT1] | 4.12 ± 0.2 | 4.07 ± 0.39 |  | 
65 | EISLEDLIERERSALGPNVTKITL [ZC3H15] | 2.77 ± 0.3 | 2.96 ± 0.48 |  | 
66 | NIWVCYASYVVFRIIYMLLITIAT [SLC19A2] | 3.41 ± 0.35 | 3.14 ± 0.88 |  | 
67 | SGGELFDFLAEKESLTEDEATQFL [DAPK3] | 4.84 ± 0.19 | 4.96 ± 0.47 |  | 
68 | GLTDVSQIITVTVQTGLDQYQQVP [IQUB] | 2.26 ± 0.085 | 2.47 ± 0.23 |  | 
69 | VLEVTEESIDFDQGELADQDVDPV [FBXO33] | 5.34 ± 0.19 | 5.57 ± 0.2 |  | 

Row | Sequence | protein stability index [1] | protein stability index [2] | protein stability index [3] | protein stability index [4]
70 | PCGPNMSEVSCKKRDDYLEWPEYF [DCTD] | 3.56 ± 0.23 | 3.6 ± 0.26 |  | 
71 | EEAKGALLGTSGLKRRFSRLENRY [DAPK3] | 3.8 ± 0.29 | 3.96 ± 0.51 |  | 
72 | LDLKGNNLRAAGAEALGKLLQQNK [LRRC45] | 4.39 ± 0.19 | 4.27 ± 0.097 |  | 
73 | SPSENSKEAEILEVLRHPRDWVR [CPOX] |  |  | 4.42 ± 0.15 | 4.53 ± 0.26
74 | MITVPIGLYFTTKSYIFEGALGMS [VMA21] | 2.49 ± 0.7 | 2.89 ± 0.43 |  | 
75 | RAYDLLRAASENSQDALRVVSTSG [IKZF1] | 2.62 ± 0.37 | 2.84 ± 0.31 |  | 
76 | CFKAKLHRKRGSQPPDMASALTDR [RSPH3] | 3.66 ± 0.26 | 3.95 ± 0.28 |  | 
77 | LSLLGAVGLAAVNSMPVDNRNHNE [CHGB] | 3.35 ± 0.2 | 3.54 ± 0.5 |  | 
78 | EVDWEYFYGLLFTSENLKLVHIVC [DFFB] | 3.34 ± 0.39 | 2.56 ± 0.94 |  | 
79 | TSYYIRYRGAVYADSGNFKRCINL [FEM1C] | 2.48 ± 0.51 | 2.33 ± 0.57 |  | 
80 | GSCQLGGGRGVSTCSTRFVSGGSA [KRT13] | 3.32 ± 0.47 | 3.87 ± 0.21 |  | 
81 | TFTEHPMKYTSEKFLEICKLSGFM [TPRG1] | 2.35 ± 0.48 | 2.22 ± 0.5 |  | 
82 | TETQRLGLAMALEPNTTFLRKSLK [FANCE] | 4.05 ± 0.19 | 4.14 ± 0.16 |  | 
83 | SPTIIFDNWIPLLWCANILGYAVS [DHCR7] | 3.36 ± 0.13 | 3.48 ± 0.42 |  | 
84 | SGPQPRLPPCLLPLSPPTAPDRAT [TRIB3] | 4.48 ± 0.27 | 4.61 ± 0.28 |  | 
85 | SSIPCSGSLDGRELSRQVRSSVEL [PPEF2] | 4.298 ± 0.036 | 4.17 ± 0.13 |  | 
86 | DPDGEEGSSIPWNHLPDPEIFRQR [ZNF24] | 4.97 ± 0.45 | 5.02 ± 0.15 |  | 
87 | AAARIRAQVPDTRWSRVGGQRFYS | 2.713 ± 0.004 | 3 ± 0.61 |  | 
88 | RADSFKVSYQLADGGEPQSVQVDG [TNXB] | 4.89 ± 0.15 | 5.01 ± 0.22 |  | 
89 | VSITLLALVYLPGVIAAIVQLHNG [STEAP1] | 3.5 ± 0.33 | 3.11 ± 0.14 |  | 
